According to publication doi:10.1101/2021.03.20.21254037:

Target: truncated human ACE2 ectodomain (residues 19-613), AviTagged, biotinylated (human) (UniProt Q9BYF1)
Test: BLI

Substance	t½ (complex half-time) [min]
SARS-CoV-2 RBD wild type (WHU1 isolate, amino acids 319-541) (from UniProt P0DTC2 319-541) (domain or fragment)	1.4
SARS-CoV-2 RBD natural variant N439K (from UniProt P0DTC2 319-541) (domain or fragment)	1.85
SARS-CoV-2 RBD natural variant Q493L (from UniProt P0DTC2 319-541) (domain or fragment)	3.52
SARS-CoV-2 RBD natural variant S477N (from UniProt P0DTC2 319-541) (domain or fragment)	2.68
SARS-CoV-2 RBD natural variant N501Y (from UniProt P0DTC2 319-541) (domain or fragment)	5.49
